Measurements published in doi:10.1101/2022.03.08.483475 (bioRxiv, 2022).
Like-named read-outs stand apart in the source and are kept apart here.

B2: MukB (wild type) (natural protein, E. coli, UniProt P22523 1-1486, looked up)
chain: MIERGKFRSLTLINWNGFFARTFDLDELVTTLSGGNGAGKSTTMAAFVTALIPDLTLLHFRNTTEAGATSGSRDKGLHGKLKAGVCYSMLDTINSRHQRVVVGVRLQQVAGRDRKVDIKPFAIQGLPMSVQPTQLVTETLNERQARVLPLNELKDKLEAMEGVQFKQFNSITDYHSLMFDLGIIARRLRSASDRSKFYRLIEASLYGGISSAITRSLRDYLLPENSGVRKAFQDMEAALRENRMTLEAIRVTQSDRDLFKHLISEATNYVAADYMRHANERRVHLDKALEFRRELHTSRQQLAAEQYKHVDMARELAEHNGAEGDLEADYQAASDHLNLVQTALRQQEKIERYEADLDELQIRLEEQNEVVAEAIERQQENEARAEAAELEVDELKSQLADYQQALDVQQTRAIQYNQAIAALNRAKELCHLPDLTADCAAEWLETFQAKELEATEKMLSLEQKMSMAQTAHSQFEQAYQLVVAINGPLARNEAWDVARELLREGVDQRHLAEQVQPLRMRLSELEQRLREQQEAERLLADFCKRQGKNFDIDELEALHQELEARIASLSDSVSNAREERMALRQEQEQLQSRIQSLMQRAPVWLAAQNSLNQLSEQCGEEFTSSQDVTEYLQQLLEREREAIVERDEVGARKNAVDEEIERLSQPGGSEDQRLNALAERFGGVLLSEIYDDVSLEDAPYFSALYGPSRHAIVVPDLSQVTEHLEGLTDCPEDLYLIEGDPQSFDDSVFSVDELEKAVVVKIADRQWRYSRFPEVPLFGRAARESRIESLHAEREVLSERFATLSFDVQKTQRLHQAFSRFIGSHLAVAFESDPEAEIRQLNSRRVELERALSNHENDNQQQRIQFEQAKEGVTALNRILPRLNLLADDSLADRVDEIRERLDEAQEAARFVQQFGNQLAKLEPIVSVLQSDPEQFEQLKEDYAYSQQMQRDARQQAFALTEVVQRRAHFSYSDSAEMLSGNSDLNEKLRERLEQAEAERTRAREALRGHAAQLSQYNQVLASLKSSYDTKKELLNDLQRELQDIGVRADSGAEERARIRRDELHAQLSNNRSRRNQLEKALTFCEAEMDNLTRKLRKLERDYFEMREQVVTAKAGWCAVMRMVKDNGVERRLHRRELAYLSADDLRSMSDKALGALRLAVADNEHLRDVLRMSEDPKRPERKIQFFVAVYQHLRERIRQDIIRTDDPVEAIEQMEIELSRLTEELTSREQKLAISSRSVANIIRKTIQREQNRIRMLNQGLQNVSFGQVNSVRLNVNVRETHAMLLDVLSEQHEQHQDLFNSNRLTFSEALAKLYQRLNPQIDMGQRTPQTIGEELLDYRNYLEMEVEVNRGSDGWLRAESGALSTGEAIGTGMSILVMVVQSWEDESRRLRGKDISPCRLLFLDEAARLDARSIATLFELCERLQMQLIIAAPENISPEKGTTYKLVRKVFQNTEHVHVVGLRGFAPQLPETLPGTDEAPSQAS

What was measured:
[1] = biological target: B2; experiment: cross-linking
[2] = biological target: the molecule itself; experiment: cross-linking
[3] = biological target: B2; experiment: cross-linking; remark: listed apart in the source
[4] = biological target: B2; experiment: co-purification, SDS-PAGE with Coomassie staining

B1: ParC subunit of topoisomerase IV (natural protein, E. coli, UniProt P0AFI2 1-752, looked up)
chain: MSDMAERLALHEFTENAYLNYSMYVIMDRALPFIGDGLKPVQRRIVYAMSELGLNASAKFKKSARTVGDVLGKYHPHGDSACYEAMVLMAQPFSYRYPLVDGQGNWGAPDDPKSFAAMRYTESRLSKYSELLLSELGQGTADWVPNFDGTLQEPKMLPARLPNILLNGTTGIAVGMATDIPPHNLREVAQAAIALIDQPKTTLDQLLDIVQGPDYPTEAEIITSRAEIRKIYENGRGSVRMRAVWKKEDGAVVISALPHQVSGARVLEQIAAQMRNKKLPMVDDLRDESDHENPTRLVIVPRSNRVDMDQVMNHLFATTDLEKSYRINLNMIGLDGRPAVKNLLEILSEWLVFRRDTVRRRLNYRLEKVLKRLHILEGLLVAFLNIDEVIEIIRNEDEPKPALMSRFGLTETQAEAILELKLRHLAKLEEMKIRGEQSELEKERDQLQGILASERKMNNLLKKELQADAQAYGDDRRSPLQEREEAKAMSEHDMLPSEPVTIVLSQMGWVRSAKGHDIDAPGLNYKAGDSFKAAVKGKSNQPVVFVDSTGRSYAIDPITLPSARGQGEPLTGKLTLPPGATVDHMLMESDDQKLLMASDAGYGFVCTFNDLVARNRAGKALITLPENAHVMPPVVIEDASDMLLAITQAGRMLMFPVSDLPQLSKGKGNKIINIPSAEAARGEDGLAQLYVLPPQSTLTIHVGKRKIKLRPEELQKVTGERGRRGTLMRGLQRIDRVEIDSPRRASSGDSEE
- binding result [1]: binds

Binder: B2
- binding result [2]: binds

B3: MukF (wild type) (natural protein, E. coli, UniProt P60293 1-440, looked up)
chain: MSEFSQTVPELVAWARKNDFSISLPVDRLSFLLAVATLNGERLDGEMSEGELVDAFRHVSDAFEQTSETIGVRANNAINDMVRQRLLNRFTSEQAEGNAIYRLTPLGIGITDYYIRQREFSTLRLSMQLSIVAGELKRAADAAEEGGDEFHWHRNVYAPLKYSVAEIFDSIDLTQRLMDEQQQQVKDDIAQLLNKDWRAAISSCELLLSETSGTLRELQDTLEAAGDKLQANLLRIQDATMTHDDLHFVDRLVFDLQSKLDRIISWGQQSIDLWIGYDRHVHKFIRTAIDMDKNRVFAQRLRQSVQTYFDEPWALTYANADRLLDMRDEEMALRDEEVTGELPEDLEYEEFNEIREQLAAIIEEQLAVYKTRQVPLDLGLVVREYLSQYPRARHFDVARIVIDQAVRLGVAQADFTGLPAKWQPINDYGAKVQAHVIDKY
- binding result [3]: binds

B4: acyl carrier protein (AcpP) found in MukB preparations (natural protein, E. coli, UniProt P0A6A8 1-78, looked up)
chain: MSTIEERVKKIIGEQLGVKQEEVTNNASFVEDLGADSLDTVELVMALEEEFDTEIPDEEAEKITTVQAAIDYINGHQA
- stoichiometry N [4]: 1 AcpP:MukB
